Results as given in PMC9239388 (Journal of Inflammation Research, 2022).

Target: the molecule itself
Assay: crystal structure

B1: human anionic trypsin (TRY2), enterokinase activated, cleaved at the Arg122-Val123 bond (enzyme)
chain 1: IVGGYICEENSVPYQVSLNSGYHFCGGSLISEQWVVSAGHCYKSRIQVRLGEHNIEVLEGNEQFINAAKIIRHPKYNSRTLDNDILLIKLSSPAVINSR
chain 2: VSAISLPTAPPAAGTESLISGWGNTLSSGADYPDELQCLDAPVLSQAECEASYPGKITNNMFCVGFLEGGKDSCQGDSGGPVVSNGELQGIVSWGYGCAQKNRPGVYTKVYNYVDWIKDTIAANS
  binding result: binds
